IntAct's records for PubMed 21808041

B1: Non-structural protein 1 (Influenza B virus (strain B/Lee/1940)), P03502 (parent)
chain: MADNMTTTQIEVGPGATNATINFEAGILECYERFSWQRALDYPGQDRLHRLKRKLESRIKTHNKSEPENKRMSLEERKAIGVKMMKVLLFMDPSAGIEGFEPYCVKNPSTSKCPNYDWTDYPPTPGKYLDDIEEEPENVDHPIEVVLRDMNNKDARQKIKDEVNTQKEGKFRLTIKRDIRNVLSLRVLVNGTFLKHPNGDKSLSTLHRLNAYDQNGGLVAKLVATDDRTVEDEKDGHRILNSLFERFDEGHSKPIRAAETAVGVLSQFGQEHRLSPEEGDN

Variants of: B1
Conditions: with isg15_human ISG15, P05161
Sequence of isg15_human ISG15, P05161 (P05161 whole entry): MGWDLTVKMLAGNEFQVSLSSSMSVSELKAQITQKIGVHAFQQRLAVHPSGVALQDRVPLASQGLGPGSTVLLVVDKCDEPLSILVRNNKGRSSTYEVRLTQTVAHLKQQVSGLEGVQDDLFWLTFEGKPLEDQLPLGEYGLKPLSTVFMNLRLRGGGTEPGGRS

MADNMTTTQIEVGPGATNATINFEAGILECYERFSWQRALDYPGQDRLHRLKRKLESRIKTHNKSEPENKRMSLEERKAIGVKMMKVLLFADPSAGIEGAEPYCVKNPSTSKCPNYDWTDYPPTPGKYLDDIEEEPENVDHPIEVVLRDMNNKDARQKIKDEVNTQKEGKFRLTIKRDIRNVLSLRVLVNGTFLKHPNGDKSLSTLHRLNAYDQNGGLVAKLVATDDRTVEDEKDGHRILNSLFERFDEGHSKPIRAAETAVGVLSQFGQEHRLSPEEGDN [M91A;F100A] was tested. Which “effect of a mutation on the interaction” value did it give?
Its value is “decreasing interaction strength”.

For MADNMTTTQIEVGPGATNATINFEAGILECYERFSAARALDYPGQDRLHRLKRKLESRIKTHNKSEPENKRMSLEERKAIGVKMMKVLLFMDPSAGIEGFEPYCVKNPSTSKCPNYDWTDYPPTPGKYLDDIEEEPENVDHPIEVVLRDMNNKDARQKIKDEVNTQKEGKFRLTIKRDIRNVLSLRVLVNGTFLKHPNGDKSLSTLHRLNAYDQNGGLVAKLVATDDRTVEDEKDGHRILNSLFERFDEGHSKPIRAAETAVGVLSQFGQEHRLSPEEGDN [W36A;Q37A], which “effect of a mutation on the interaction” value is on record?
The value was “disrupting interaction strength”.
